Measurements published in patent US20160281093, “METHODS AND COMPOSITIONS FOR INTERFERENCE WITH DNA POLYMERASE AND DNA SYNTHESIS” (GEORGIA STATE UNIVERSITY RESEARCH FOUNDATION, INC., published 2016).

Target: E. coli DNA polymerase I (Escherichia coli, UniProt P00582 P00582:1-928)
Experiment: EMSA; Kd stated as determined from binding curves but value not given; RNA 50 nM, pol 0-80 nM, 10 mM KCl, 1 mM DTT, 5% glycerol, pH 7.0
Conditions: tags: New England Biolabs; label: body-labeled 32P
Description: A mixture (5 μL) containing bodily ³²P-labeled RNA 69-mer (50 nM, final), DNA polymerase I (0, 20, 40, 60, or 80 nM), and binding buffer (final: 10 mM KCl, 1 mM DTT, 5% glycerol, pH 7.0) was incubated at room temperature for 30 minutes and then placed at 4° C. overnight. The binding solutions were mixed with the gel loading dye (final: 10 mM KCl, 1 mM DTT, 5% glycerol, 0.001% xylene blue w/v) and then loaded on 10% non-denaturing polyacrylamide gel in the running buffer (5 mM Tris-HCl, 10 mM EDTA, and pH 7.5). The gel was pre-run for 1 hour at 250 volts. After loading the samples, the gel was run with a constant voltage (250 volts) for one hour; all operations were performed in 4° C. cold room. The gel was fixed with 7% acetic acid (in methanol), dried, and scanned. The radioactive bands were quantified by phosphorimager using image quantifying software. […] Dissociation constant was determined from the binding curves.
A mixture (5 μL) containing bodily ³²P-labeled RNA 69-mer (50 nM, final), DNA polymerase I (0, 20, 40, 60, or 80 nM), and binding buffer (final: 10 mM KCl, 1 mM DTT, 5% glycerol, pH 7.0) was incubated at room temperature for 30 minutes and then placed at 4° C. overnight. […] The radioactive bands were quantified by phosphorimager using image quantifying software. […] Dissociation constant was determined from the binding curves.

Chain of E. coli DNA polymerase I (P00582 whole entry, one chain of several): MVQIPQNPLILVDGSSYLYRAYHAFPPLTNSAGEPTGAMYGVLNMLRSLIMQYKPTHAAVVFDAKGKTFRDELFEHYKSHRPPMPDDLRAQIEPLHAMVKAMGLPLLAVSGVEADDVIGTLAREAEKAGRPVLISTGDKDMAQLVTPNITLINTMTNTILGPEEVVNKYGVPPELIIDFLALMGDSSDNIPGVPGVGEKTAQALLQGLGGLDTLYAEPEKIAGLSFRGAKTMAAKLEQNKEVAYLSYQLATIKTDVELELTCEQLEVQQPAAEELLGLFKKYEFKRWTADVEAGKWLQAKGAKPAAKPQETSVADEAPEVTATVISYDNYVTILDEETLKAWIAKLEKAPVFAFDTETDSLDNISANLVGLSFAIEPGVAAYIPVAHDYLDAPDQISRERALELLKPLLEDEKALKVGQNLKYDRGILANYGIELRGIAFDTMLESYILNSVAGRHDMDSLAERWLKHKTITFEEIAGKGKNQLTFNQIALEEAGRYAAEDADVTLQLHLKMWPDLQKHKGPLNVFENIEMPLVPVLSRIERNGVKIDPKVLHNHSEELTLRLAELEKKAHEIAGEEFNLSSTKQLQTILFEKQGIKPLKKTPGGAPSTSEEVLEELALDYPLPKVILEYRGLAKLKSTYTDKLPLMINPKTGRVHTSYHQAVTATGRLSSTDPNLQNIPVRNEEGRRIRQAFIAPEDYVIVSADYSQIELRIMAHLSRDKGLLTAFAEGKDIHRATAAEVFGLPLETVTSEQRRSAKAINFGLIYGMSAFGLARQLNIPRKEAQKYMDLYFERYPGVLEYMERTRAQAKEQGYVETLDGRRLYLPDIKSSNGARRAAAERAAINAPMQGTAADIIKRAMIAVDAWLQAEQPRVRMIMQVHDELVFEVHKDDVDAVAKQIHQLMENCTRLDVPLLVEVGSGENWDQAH

B1: RNA-69mer (ssRNA)
RNA: GGGAGCCCUGUCACCGGAUGUGCUUUCCGGUCUGAUGAGUCCGUGAGGACAAAACAGGGCUCCCGAAUU
binding result: binds
